Target: the molecule itself
Assay: native MS

B1: outer membrane porin F (OmpF) (natural protein)
chain: AEIYNKDGNKVDLYGKAVGLHYFSKGNGENSYGGNGDMTYARLGFKGETQINSDLTGYGQWEYNFQGNNSEGADAQTGNKTRLAFAGLKYADVGSFDYGRNYGVVYDALGYTDMLPEFGGDTAYSDDFFVGRVGGVATYRNSNFFGLVDGLNFAVQYLGKNERDTARRSNGDGVGGSISYEYEGFGIVGAYGAADRTNLQEAQPLGNGKKAEQWATGLKYDANNIYLAANYGETRNATPITNKFTNTSGFANKTQDVLLVAQYQFDFGLRPSIAYTKSKAKDVEGIGDVDLVNYFEVGATYYFNKNMSTYVDYIINQIDSDNKLGVGSDDTVAVGIVYQF
stoichiometry N: 3

— PMC6042154 (Proceedings of the National Academy of Sciences of the …, 2018)
